The values that follow come from US20230366033A1, “METHODS FOR TREATING CANCERS WITH INHIBITORS TARGETING THE ROLE OF GRB2 IN DNA REPAIR” (Board of Regents, The University of Texas System, priority 2020, published 2023).

The target of assay [1] is GRB2 K109R mutant, bacterially expressed and purified (UniProt P62993). Kind of assay: MST, 100 nM Atto488-labelled K109R GRB2, peptide titrated.
Assay [2] concerns the target GRB2-SH2 domain, purified, Atto488-labelled (UniProt P62993). The assay is described as follows: MST; 100 nM Atto488-labelled GRB2-SH2 domain, peptide titrated; pEGFR phosphopeptide, comparator; cited to a figure and Ahmed et al., 2015.
The next assay concerns the target HERC1 (human) (UniProt Q15751). The assay is described as follows: GRB2 immunoprecipitation-mass spectrometry in HEK293T cells (mean of three data sets) [panel G].
Assay [3] concerns the target CBLL1 E3 ubiquitin ligase, endogenous, in HEK293T cells (UniProt Q75N03). Described as above.
Assay [4] has as its target RING2 E3 ubiquitin ligase, endogenous, in HEK293T cells (UniProt Q99496). Described as above.
In assay [5] the target is Histone H2AX, endogenous, in HEK293T cell extracts (UniProt P16104). Kind of assay: Strep-Tactin purification of Strep-GRB2 from HEK293T nuclear extracts, mass spectrometry (mean of three data sets) [panel A].

Chain of CBLL1 E3 ubiquitin ligase, endogenous, in HEK293T cells (Q75N03 whole entry): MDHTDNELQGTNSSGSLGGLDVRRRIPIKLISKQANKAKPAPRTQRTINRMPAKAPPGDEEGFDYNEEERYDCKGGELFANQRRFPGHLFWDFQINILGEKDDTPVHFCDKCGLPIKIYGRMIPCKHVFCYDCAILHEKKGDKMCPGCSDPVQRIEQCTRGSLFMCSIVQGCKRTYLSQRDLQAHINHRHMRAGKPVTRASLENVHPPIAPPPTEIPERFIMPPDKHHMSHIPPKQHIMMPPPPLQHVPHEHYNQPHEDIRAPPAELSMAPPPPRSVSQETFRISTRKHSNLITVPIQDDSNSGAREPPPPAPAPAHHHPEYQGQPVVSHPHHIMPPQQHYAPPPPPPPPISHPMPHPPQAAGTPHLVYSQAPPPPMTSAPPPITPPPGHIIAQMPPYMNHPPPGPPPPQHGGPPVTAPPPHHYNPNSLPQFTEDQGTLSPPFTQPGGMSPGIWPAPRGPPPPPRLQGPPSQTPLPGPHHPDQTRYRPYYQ
Chain of RING2 E3 ubiquitin ligase, endogenous, in HEK293T cells (Q99496 2-336 limits assumed): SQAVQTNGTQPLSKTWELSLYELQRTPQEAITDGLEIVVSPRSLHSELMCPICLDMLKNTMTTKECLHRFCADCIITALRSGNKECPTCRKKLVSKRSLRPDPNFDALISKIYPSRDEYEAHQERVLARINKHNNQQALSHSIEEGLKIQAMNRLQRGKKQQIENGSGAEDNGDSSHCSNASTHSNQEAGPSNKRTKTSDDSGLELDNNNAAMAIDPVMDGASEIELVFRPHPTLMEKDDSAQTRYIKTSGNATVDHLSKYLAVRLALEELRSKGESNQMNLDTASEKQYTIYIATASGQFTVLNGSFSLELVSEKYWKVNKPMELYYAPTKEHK

As a reminder, the Kd is a measure of binding affinity in units of concentration. A low value points to a tighter complex. For the substance “Phosphorylated EGFR synthetic peptide FLPVPE(pY)INQSVPKR”, the Kd in assay [1] was 2.6 µM; in assay [2], 7.2 µM.
On to “Strep-tagged wild-type GRB2 expressed in cells (HEK293T; reconstituted GRB2-KO cells) (from UniProt P62993 1-217)”, for which the Coverage(%) is 0% in the assay with HERC1 (human), 3% in assay [3], 15% in assay [4] and 71% in assay [5]. The Peptides with HERC1 (human) was 1 peptides; in assay [3] it was 1 peptides; in assay [4] it was 4 peptides; in assay [5] it was 16 peptides.
